Assay [1] deals with T1, CCX CKR (Homo sapiens, UniProt Q9NPB9).
T1 construct: Full length CCX CKR expression constructs were made in pIRESpuro expression vector; expressed in transfected cells
T1 sequence (Q9NPB9 1-350): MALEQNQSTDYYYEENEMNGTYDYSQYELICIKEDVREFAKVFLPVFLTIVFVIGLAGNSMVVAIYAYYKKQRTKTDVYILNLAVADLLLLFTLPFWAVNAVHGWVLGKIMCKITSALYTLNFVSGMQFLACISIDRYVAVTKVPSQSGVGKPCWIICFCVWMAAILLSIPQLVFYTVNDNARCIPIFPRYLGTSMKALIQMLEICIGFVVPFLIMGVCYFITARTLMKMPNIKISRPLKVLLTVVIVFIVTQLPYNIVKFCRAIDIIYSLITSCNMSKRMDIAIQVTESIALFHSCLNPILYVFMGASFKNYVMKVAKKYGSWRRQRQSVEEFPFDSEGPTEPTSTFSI
In words: Ligand induced internalization of CCX CKR in 293 F-CCR10 cells (FACS, anti-Flag). The conditions noted are these: 100 nM chemokine, 37° C., 15 or 45 minutes. In kind it is cell-based. As to the method: 293 cells transfected with the Flag-CCX CKR fusion plasmid (i.e., “293 F-CCR10 cells;” see Example 3) were incubated at 37° C. with varying concentrations of chemokines (ELC, SLC, TECK, murine CTACK and MCP4) for 15 or 45 minutes. Following incubation, the cells were washed and fixed with 3% paraformaldehyde for 15 minutes on ice. The cells were stained with anti-Flag M1 antibody, followed by a PE-conjugated anti-mouse secondary antibody. FACS analysis were then carried out to determine surface expression of the receptor.
Results: A reduction in antibody binding in the presence of ligand is an indication of ligand-induced internalization of the receptor.

For assay [2], the target named is T1, CCX CKR. In words: Preliminary chemotaxis analysis of CCX CKR transfectants. In kind it is cell-based. The following applies: preliminary chemotaxis analyses, not shown.
In assay [3] the target is T1, CCX CKR. As to the kind of experiment: Adhesion of HEK293-CCX CKR cells to immobilized ELC-stalkokine and competition by soluble chemokines. The following applies: 5-10 ug/ml soluble recombinant chemokine as competitor. The format is cell-based. The source says:
“Stalkokine” technology was used to :identify the chemokines bound by the CCX CKR. Briefly, immobilized native chemokines alone are incapable of capturing cells bearing cognate receptors (Imai et al., 1997, Cell 91:521). We have developed non-native chemokine structures, stalkokines, comprising chemokine moieties engineered as N-terminal attachments to extended modified mucins (Bazan et al., 1997, Nature 385:640). In one embodiment, stalkokines, harvested in the supernatants of HEK293 cells after transient transfection, are anchored to solid substrates via antibodies against carrier domains (e.g. poly-His epitopes) engineered to the carboxyl terminus, leaving the chemokine domain free to interact with candidate orphan receptors.
To determine ligand binding to CCX CKR, HEK293-CCX CKR cells were used to interrogate chemokine ‘stalkokines’ (SK), i.e., molecules in which discrete chemokine domains were engineered to be tethered to the end of an extended stalk structure. […] In all cases, nonadherent cells were removed by washing in PBS; remaining adherent cells were fixed with 1% glutaraldehyde, photoimaged and counted. […]

Assay [4] concerns the target T1, CCX CKR. In words: Ligand binding fingerprint: displacement of 125I-ELC from CCX CKR stable transfectants by cold chemokines. The following applies: cold competitor 200 nM; human and murine ELC, SLC, TECK; comparable with 125I-TECK. The text has this: In one embodiment, binding is detected as described by Dairaghi et al., 1997, J. Biol. Chem. 272:28206-209 (incorporated by reference in its entirety for all purposes) substituting CCX CKR transfectants for the CCR3 transfectants). In one embodiment, binding is detected using the filter based technique described by Dairaghi et al., 1999, J. Biol. Chem. 274:2156 (incorporated by reference in its entirety for all purposes), e.g., as shown in FIG. 4. Briefly, this technology employs expanded, efficiency-maximized radioligand binding utilizing filtration protocols. […] Filters are washed twice (25 mM HEPES, 500 mM NaCl, 1 mM CaCl25 mM MgCl2, adjusted to pH 7.1) and scintillant (e.g., MicroScint 20; 50 μl) is added to dried filters and counted (e.g., using a Packard Topcount scintillation counter). The competition dose-response curves is analyzed by standard methods to determine IC50 values (e.g., using GraphPad Prism software (San Diego, Calif.)). […]
In order to rapidly and thoroughly define a given chemokine receptor's ligand binding fingerprint, we have established an approach to comprehensively profile chemokine receptors using a large array of purified chemokines and chemokine variants. […] Employing radioligand binding of ^125I-labeled-ELC or ^125I-TECK to CCX CKR stable transfectants, chemokine specificity for the new receptor was determined. […]

For assay [5], the target named is T1, CCX CKR. As to the kind of experiment: Radioligand binding competition with Scatchard transformation (binding constants). The conditions noted are these: for Affinity class of CCX CKR ligands (summary of Examples 4-6): summary statement. The text has this:
In one embodiment, binding is detected as described by Dairaghi et al., 1997, J. Biol. Chem. 272:28206-209 (incorporated by reference in its entirety for all purposes) substituting CCX CKR transfectants for the CCR3 transfectants). In one embodiment, binding is detected using the filter based technique described by Dairaghi et al., 1999, J. Biol. Chem. 274:2156 (incorporated by reference in its entirety for all purposes), e.g., as shown in FIG. 4. Briefly, this technology employs expanded, efficiency-maximized radioligand binding utilizing filtration protocols. In these assays, 1×10^5 CCXCKR-293 HEK cells are incubated with […] (MlP3beta) (final concentration of ˜0.05 nM) in the presence of unlabeled chemokine for 3 h at 4° C. in 25 mM HEPES, 140 mM NaCl, 1 mM CaCl2, 5 mM MgCl2, and 0.2% bovine serum albumin, adjusted to pH 7.1. Reactions were aspirated onto PEI-treated GF/B glass filters using a cell harvester (Packard). Filters are washed twice (25 mM HEPES, 500 mM NaCl, 1 mM CaCl25 mM MgCl2, adjusted to pH 7.1) and scintillant (e.g., MicroScint 20; 50 μl) is added to dried filters and counted (e.g., using a Packard Topcount scintillation counter). The competition dose-response curves is analyzed by standard methods to determine IC50 values (e.g., using GraphPad Prism software (San Diego, Calif.)). Additionally, a Scatchard transformation can be used to estimate the receptor sites per cell (e.g., using WaveMetrics Igor software (Lake Oswego, Oreg.)).
Binding analysis was carried out using efficiency-maximized radioligand binding utilizing filtration protocols designated “Displace Max” (Dairaghi et al., 1999, J Biol. Chem. 274:21569). […]
The binding interactions identified in the primary screen were examined quantitatively by extensive radioligand binding competition to CCX CKR stable transfectants and Scatchard transformation of the displacement data (FIG. 4B). […]

Assay [6] addresses T1, CCX CKR. In words: Homologous competition binding of radiolabeled chemokine on HEK293-CCX CKR cells. The source says:
Furthermore ELC-SK mediated adhesion was abolished in the presence of soluble native ELC as a competitor (FIG. 3A, top row). […] Moreover, radiolabeled ELC was used in a traditional homologous competition assay in the presence of increasing concentrations of unlabeled ELC. […] Taken together, the stalkokine-based adhesion and radiolabeled ligand binding/homologous competition assays indicate that CCX CKR is a new chemokine receptor that bound a novel compliment of chemokines.

The target in assay [7] is T1, CCX CKR. As to the kind of experiment: Small molecule screen: inhibition of 125I-ELC binding to HEK293 cells expressing CCX CKR. The following applies: for Effect on binding between ELC and CCX CKR: 125I-ELC ~25-100 pM, compounds 1-5 μg/mL, ~3 hours at 4° C., HEK293 Flag-CCX CKR cells; for Type of modulator of CCX CKR function: Table 1, class given beside the label. As to the method:
Source plates of chemical libraries were obtained from commercial vendors and contained individual compounds at 5 mg/mL in DMSO, or in some instances, at 1 mg/mL. From these, multiple compound plates containing 10 compounds in each well were made, and these were diluted in 20% DMSO to a concentration of 50 μg/mL (10 μg/mL for those beginning at 1 mg/mL). An aliquot of 20 μL of each mixture was put into the test plates, which were stored frozen until use.
HEK293 cells stably expressing the M1 flag epitope-tagged CCX CKR (described in Example 3, supra) were cultured in DMEM-10% FBS, and harvested when the concentration was between 0.5-1.0×10^6 cells/mL. The cells were centrifuged and resuspended in assay buffer (20 mM HEPES, 80 mM NaCl, 1 mM CaCl2, 5 mM MgCl2, and with 0.2% bovine serum albumin, pH 7.4) to a concentration of 5.6×10^6 cells/mL.
Using a Multi-Probe automated system, 0.09 mL of cells was added to each well of the assay test plates containing the compounds, followed by 0.09 mL of ^125I-MIPβ3/ELC (from Amersham Pharmacia Biotech) diluted in assay buffer (final concentration ˜25-100 pM, with ˜50,000 cpm per well). The final concentration of the compounds was 1-5 μg/mL each. The plates were sealed and incubated for approximately 3 hours at 4° C. on a shaker platform. The assay plates were harvested using Packard GP/B filter plates, pre-soaked in PEI solution, on the vacuum harvest apparatus. Scintillation fluid (50 μL) was added to each of the wells, the plates were sealed and counted in a Top Count scintillation counter. Control wells contained either diluent only (for total counts) or excess ELC (1 μg/mL, for non-specific binding) and were used to calculate the percent of total inhibition of ELC binding for each set of compounds.

“Also recorded” adds a separate entry of the source.

For “ELC: EBII ligand chemokine, recombinant chemokine from R&D Systems”, the “Internalization of the receptor” value in assay [1] is “Internalization of the receptor was observed”. In addition, in assay [2], the “Migration of CCX CKR transfectants in response to chemokine” value was “moderate migration”. For the same compound, in assay [3], the “Effect of soluble chemokine on ELC-SK mediated adhesion of HEK293-CCX CKR cells” value is “ablation of adhesion; also recorded: abolished”. Moreover, in assay [4], the “Binding to CCX CKR by displacement of 125I-labeled ELC” value is listed as “bound well”. For the same compound, the “Affinity class of CCX CKR ligands (summary of Examples 4-6)” value in assay [5] is recorded as “high affinity”. The “Binding of radiolabeled ELC, homologous competition with unlabeled ELC” value in assay [6] is given as “significant binding”.
Regarding `CC1CCCCN1CCCN(Cc1ccc(OCc2ccccc2)cc1)C(=O)Nc1ccc(Cl)c(Cl)c1` (centres unmarked) [Compound I], in assay [7], the “Effect on binding between ELC and CCX CKR” value is given as “inhibit binding”; the “Type of modulator of CCX CKR function” value is “Com- pound I (antago- nist)”.
With `CC1CCCCN1CCCN(Cc1ccc(OCc2ccccc2)cc1)C(=O)NC12CCCC3CCC1CC2C3` (centres unmarked) [Compound II], in assay [7], the “Effect on binding between ELC and CCX CKR” value is recorded as “inhibit binding”; the “Type of modulator of CCX CKR function” value is given as “Com- pound II (antago- nist)”.
For “MCP-3: soluble chemokine, representative of non-competing chemokines”, the “Effect of soluble chemokine on ELC-SK mediated adhesion of HEK293-CCX CKR cells” value in assay [3] was “no diminution in adhesion and not”.
For the compound BLC: CXC chemokine BLC, the “Binding to CCX CKR by displacement of 125I-labeled ELC” value in assay [4] was “lower affinity”. In assay [5] (competition against 125I-ELC), the “Affinity for CCX CKR in multipoint competition, in words” value is “of lesser affinity, also bound well”. Besides, in assay [5], the “Affinity class of CCX CKR ligands (summary of Examples 4-6)” value is “lower affinity”.
Turning to `CCC(c1nc2ccccc2c(=O)n1C)N(Cc1ccco1)C(=O)Nc1cccc(C(F)(F)F)c1` (centres unmarked) [Compound III], in assay [7], the “Effect on binding between ELC and CCX CKR” value is on record as “enhance binding”; the “Type of modulator of CCX CKR function” value is “Com- pound III (agonist)”.
On to “MCP4: chemokine used as non-binding control in internalization assay”, for which the “Internalization of the receptor” value in assay [1] is “did not cause internalization”.

Source of the values: US6998239B1, “Method for identifying a modulator of the binding of CCX CKR polypeptide to a chemokine” (ChemoCentryx, Inc., priority 1999, dated 2006).
